B1: CPEB3 Ribozyme (parent)
chain: UAACAGGGGGCCACAGCAGAAGCGUUCACGUCGCAGCCCCUGUCAGAUUCUGGUGAAUCUGCGAAUUCUGCUGUAUAUCUC

Variants of: B1
Experiment: self-cleavage, relative activity (ratio to wild type); higher = more cleavage; in vitro, sequencing
In short: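 After error-prone PCR and barcoding, CPEB3 ribozyme mutant libraries were transcribed with T7 RNA polymerase at 37°C for 5 hours, then given 15 min with DNase I before an EDTA stop, and they cleaved during both steps. Reverse transcription with template switching preceded Illumina sequencing. Relative activity divides a variant's cleaved/total read fraction by the unmutated ribozyme's. At least 5 reads were required per variant, and three batches were averaged.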

Variant	self-cleavage
C11G U67G	0.2
C11G U69A	0.11
C11G U69C	0.25
C11G U69G	0.14
C11G U72C	0.69
C11G U74A	0.96
C11G U74C	0.91
C11G U74G	0.84
C11G U76A	0.49
C11G U76C	0.61
C11G U78A	0.8
C11G U78C	0.43
C11G U78G	0.59
C11G U80A	0.76
C11G U80C	0.55
C11U	0.44
C11U A13C	0.09
C11U A13G	0.43
C11U A13U	0.49
C11U A15C	0.5
C11U A15G	0.4

Variant	self-cleavage
C11U A15U	0.35
C11U A18C	0.39
C11U A18G	0.31
C11U A18U	0.24
C11U A20G	0.43
C11U A20U	0.28
C11U A21G	0.28
C11U A28U	0.34
C11U A35G	1.27
C11U A35U	0.33
C11U A45G	0.2
C11U A45U	0.27
C11U A47G	0.36
C11U A47U	0.31
C11U A56G	0.32
C11U A56U	0.33
C11U A57G	0.33
C11U A64G	0.34
C11U A65G	0.2
C11U A65U	0.33
C11U A75G	0.32

Variant	self-cleavage
C11U A75U	0.43
C11U A77G	0.41
C11U A77U	0.47
C11U C12U	0.56
C11U C14A	0.93
C11U C23U	0.24
C11U C32A	0.2
C11U C38A	0.06
C11U C40U	0.27
C11U C50U	0.4
C11U C62U	0.11
C11U C68A	0.11
C11U G19U	0.07
C11U G24A	0.22
C11U G33A	0.42
C11U G33C	0.14
C11U G33U	0.19
C11U G42A	0
C11U G52A	0.62
C11U G53C	0.4
C11U G53U	0.43

Variant	self-cleavage
C11U G61C	0.11
C11U G63A	0.24
C11U G73A	1.25
C11U U25A	0.38
C11U U25C	0.22
C11U U26A	0.36
C11U U26C	0.31
C11U U31A	0.32
C11U U31C	0.29
C11U U31G	0.23
C11U U41A	0.3
C11U U41C	0.51
C11U U43A	0.68
C11U U43C	0.35
C11U U48A	0.24
C11U U48C	0.31
C11U U49A	0.32
C11U U49C	0.24
C11U U51A	0.42
C11U U51C	0.44
C11U U51G	0.35
